Test: yeast display, Sf9 membrane polyspecificity reagent, FACS + sequencing; frameworks hold sequencing errors
In short: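 Genes from sorted yeast were amplified by colony PCR, read by MiSeq 2 × 250 sequencing and filtered on CDR length. These cells carried a synthetic nanobody library in Saccharomyces cerevisiae BJ5465 and were sorted by FACS into low and high (top ~1%) gates on anti-HA and streptavidin fluorescence. Polyreactivity is labelled according to the gate of origin.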

Sequence | polyreactivity (PSR sort gate)
QVQLVQSGGGLVQAGGSLSLSCAASGSTFSTYAMGWYRQAPGKERELVATISKSGGSTYYSDSVKGRFTISRDNAKNTVYLQMNSLKPEDTAVYYCNARYQSRYFIYDYWGQGTQVTVSS | high polyreactivity
QVQLVESGGGLVQAGGSLRLSCAASGFTFGSYAMGWYRQAPGKERELVAAISWGGGSTYYADSVKGRFTISRDNAKNTVYLQMNSLKPEDTAVYYCNADAISSFGYWGQGTQVTVSS | high polyreactivity
QVQLVESGGGLVQAGGSLRLSCAASGRTFRAYTMGWYRQAPGKERELVAAISTPGGSTYYADSVKGRFTISRDNAKNTVYLQMNSLKPEDTAVYYCAADRYYWGQGTQVTVSS | low polyreactivity
QVQLVESGGGLVQAGGSLRLSCAASGIIFPYSAMGWYRQAPGKERELVAAITSIDASTYYADSVKRRFTISRDNAKNTVYLHMNSLKPEDTAVYYCNATVFNLVLEYNYWGQGTQVTVSS | low polyreactivity
QVQLVESGGGLVQAGGSLSLSCAASGRIFRYNAMGWYRQAPGKERELVAGINGRSGSTTYADSVKGRFTISRDNAKNTVYLQMNSLKPEDTAVYYCAIVYGGYHYAFRSSRGMGYWGQGTQVTVSS | high polyreactivity
QVQLVESGGGLVQAGGSLRLSCAASGSIFKRYAMGWDRQAPGKERELVASISSRGSSTNYADSVKGRFTISRDNAKNTVYLQMNSLKPEDTAVYYCAAEVYRGKYWSTYRGGDYWGQGTQVTVSS | high polyreactivity
QVQLVESGGGLVQAGGSLRLSCAASGSTIYKYAMGWYRQAPGKERELVAAISGSGGRTYYADSVKGRFTISRDNAKNTVYLQMNSLKPEDTAVYYCAARPKGGPWEHDYWGQGTQVTVSS | high polyreactivity
QVQLVESGGGLVQAGGSLRLSCAASGGILNPNAMGWYRQAPGKERELVAAISNGGGTKYADSVKWRFTISRDNAKNTVYLQMNSLKPEDTAVYYCAARQWWSYDYWGKGTQVTVSS | high polyreactivity
QVQLVESGLGLVQAGGSLRLSCAHSGSTLVYNDMRWYRQAPGKEREFVAAIRSNDGSTYYADSVNGRFTISRDNAKNTVYLQMNSLTPEDTAVYYCAATFSSAFAYYYWGQGTQVTVSS | low polyreactivity
QVQLVESGGGLVQAGGSLRLICAASGFSFRYYDMGWYRQAPGKERELVAAISRSGGRTYYADSVKGRFTISRDNAKNSVYLQMNSLNPEDTAVYYCNAVYNVVLSRVIYARGYWGQGTQVTVSS | high polyreactivity
QVQLVESGRGLVQAGGSLRLSCAASGRIFDHYAMGWYRQAPGKERELVAAITWSGANTYYADSVKGRFTISRDNAKNTVYLQMNSLKPEDTAVYYCAAYNGAHSHFGYWGQGTQVTVSS | low polyreactivity
QVHLVESGGGLVQAGGSLRLICAASGRILYLYAMGWYRQAPGKERELVARISQRDGSTYYADSVKGRFTISRDNAKNTVYLQMNSLKPEDTAVYYCNADFYLGSYGYSYDYWGQGTQVTVSS | low polyreactivity
QVQLQESGGGLMQAGGSQRLSCAASGSISYYSDMGWYRQAPGKEREFVAGIGYGTTTNYADSVKGRFTTSRDNAKNTVYLQMISMKTEDTAVYYCAAYQGNGYEFYYWGQGTQVTVRS | low polyreactivity
QVQLVESGGGLVQAGGSLRLSCAASGITSPYAMGWYRQAPGKERELVAAISWSGSSTYYADSVKGRFTISRDNAKYTVYLQMNSLNPEDTAVYYCATLVSASRSRRFGYEYWGQGSQVTVSS | high polyreactivity
QVQLLETGGGLVQAGVSLRLSSAASGRTFWTNGMGWYRQAPGKERELVASISTSGGRTYYADSVKGRFTISRDNSKNTVYLQMNSLKPEDTAVYYCAARALSHGARYDYWGQGTQVNVSS | high polyreactivity
QVQLVESGGGLVQAGGSLRLICAASGRTFLPNAMGWYRQAPGKERELVAVITSAGSTYYADSVKGRFTISRDNAKNTVYLQRNSLKPEDTAVYYCSADYLDYDLGDPPPRYYYWGQGTQVTVSS | low polyreactivity

Sequence | polyreactivity (PSR sort gate)
QVQLVESGVGLVQAGGSLRLSCAASGNIFLKNAMGWYRQAPGKERELVAAMSKRGGSTYYADSVKGRFTISRDNAKNTVYLQMNSLKPEDTAVYYCAARFKTTGYDYWGQGTQVTVSS | high polyreactivity
QVQLVESGGGLVQAGGSLRLSCAASGSNFIPNAMGWYRQAPGKERELVAAIRSGRSTYYADSVKGRITISRDNANNTVYLQMNSLQPEATAVYYCAADTYPYYYYLARYYYWGQCTQVTVSS | low polyreactivity
QVQIVESGGGLVPAGCSLRLICAASGFTYALYAMGWYRQAPGKETELVAANTYRGGSTYDADSVKWRFTISRDNAKNTVYLQLISLKPEDTAVYYCNAGGLWFPGVPDYDYWVQGTQVTVSS | high polyreactivity
QVQLVESGGGLVQAGGSLRLSCAASGSFGFYVMGWYRQAPGKERELVSAISSVGSTNYADSVKGRFTISRDNAKNTVYFQMNSLKPEDTAVYYCARRYWYPDAFYRYDYWGQGTQVTVSS | low polyreactivity
QVQLVESGGGLVQAGGSLRLSCAASGRIFSYYAMGWYRQAPGKERELVAAISRTGGRTYYADSVKGRFTISRDNAKNTVYLQMNSLKPEDTAVYYCNVVGRRYWHWDQALDYWGQGTQVTVSS | high polyreactivity
QVQLVESGGGLVQAGGSLRLSCAASGFILATYAMGCYRQAPGKERELVAAISASGSSTYYADSVKGRFTISRDNAKNTVYLQMNSLKPEDTAVYYCAASWGYGALTPDMGYWGQGTQVTVSS | low polyreactivity
QVQLVESGGGLVQAGGSLRLSCAASGRIFSKNAMGWYRPAPGKERELVAAISSGGSTYDADSVKGRFTISRDNAKNTVYLQMNSLKPEDTAVYYCAARKRGYYWGQGTQVTVSS | high polyreactivity
QVQLVESGGGLVQAGGSLRLSCAASGSTFGFNAMGWYRQAPGKERELVAAISRSGTRTYYADSVKGRFTISRDNAKNTVYLQMNSLKPEDTAVYYCAADSTLSRYDYWGQGTQVTVSS | high polyreactivity
QVQLVESGGGLVQAGGSLRLSCAASGITFRTNTMGWSRQAPGKERELVAAITWDGGSTYYADSVKGRFTISRDNAKNTVYLQMNSLKPEDTAVYYCAARLSYLYGLYPYYYWGQGTQVTVSS | high polyreactivity
QVQLVESGGGLVQAGGSLRLSCAASGFTLGSNAMGWYRQAPGKERELVAAISKSGGSTYYADSVKGRFTISRDNAKNTVYLQMNSLKPEDTAVYYCAARYLYQGYRYDYWGQGTQVTVSS | high polyreactivity
QVQLVESGGGLVQAGGSLRLSCAASGRTFENNAMGWYRQAPGKERELVATIRYSGTSTYADSVKGRFTISRDNAKNTVYLQMNSLKPEDTAVYYCAKQVRYYGYKYNYWGQGTQVTVSS | high polyreactivity
QVQLVESGGGLVQAGGSLRLSCAASGRIFRAYAMGWYRQAPGKERELVAAISYRGGSTYYADSVKGRFTISRDNAKNTVYLQMNSLKPEDTAVYYCAADSDRSVWIYGYSGQGTQVTVSS | low polyreactivity
QVQLVESGGGLVQAGGSLRLSCAASGSTFTPYAMGWYRQAPGKERELVAAITWRTGSTRYADSVKGRFTISRDNAKNTVYLQMNSLKPEDTAVYYCAAKVTRFGAPGVNYWGQGTKVTVSS | high polyreactivity
QVQLVESGGGLVQAGGSLRLSCAASGFIFSRYAMGWYRQAPGKERELVAAISDYGGRTYYADSVKGRFTISRDNAKNTVYLQMNSLKPEDTAVYYCAADLEGYYPYEYWGQGTKVTVSS | high polyreactivity
QVQLVESCGGLVQAGGSLRLSCAASGRIFLYNAMGWYRQAPGKERELVAVISRNGGSTYYADSVKGRFTISRDNAKNTVYLQMNSLKPEDTAVYYCNRYDRLAGRTTYDYWGQGSQVTVSS | high polyreactivity
QVQLVESGGGIVQAGGSLRLSCAASGRNFIHYAMGGYRQAPGKERELVAAISWGGGRTYYADSEKGRFTISRDNAKNTVYLQMNSLKPEDTAVYYCAAAGRGSGYDYWGQGTQVTVSS | high polyreactivity

From the nanobody polyreactivity screen of Harvey et al. (2022)
